Results from EP4293040A1.

Molecular target: human trimeric IL-2 receptor (IL-2Rα, IL2Rβ and reconstituted transgenic wild-type GCR) on GnR cells (human) (UniProt P01589)
Assay: cell-based or functional assay

EC50 of the mRuby2 response (STAT5-mRuby2 reporter): 0.56 nM
Substance: IL-15 (from UniProt P40933 49-162) (ligand)
